Assays:
[1] = target: T1, recombinant human matrix metalloproteinase-2 (重组人基质金属蛋白酶-2) (Homo sapiens, UniProt P08253); assay: In vitro inhibition of matrix metalloproteinase-2 (fluorogenic peptide cleavage); type: biochemical; conditions: MMP-2; substrate Mca-Pro-Leu-Gly-Leu-Dpa-Ala-Arg-NH2; pH 7.4; 37 °C; 100 μl
T1 construct: 该酶用0.01μM的基质金属蛋白酶-3活性位点活化; made in house; host or cells: E. coli
T1 sequence (P08253 110-660): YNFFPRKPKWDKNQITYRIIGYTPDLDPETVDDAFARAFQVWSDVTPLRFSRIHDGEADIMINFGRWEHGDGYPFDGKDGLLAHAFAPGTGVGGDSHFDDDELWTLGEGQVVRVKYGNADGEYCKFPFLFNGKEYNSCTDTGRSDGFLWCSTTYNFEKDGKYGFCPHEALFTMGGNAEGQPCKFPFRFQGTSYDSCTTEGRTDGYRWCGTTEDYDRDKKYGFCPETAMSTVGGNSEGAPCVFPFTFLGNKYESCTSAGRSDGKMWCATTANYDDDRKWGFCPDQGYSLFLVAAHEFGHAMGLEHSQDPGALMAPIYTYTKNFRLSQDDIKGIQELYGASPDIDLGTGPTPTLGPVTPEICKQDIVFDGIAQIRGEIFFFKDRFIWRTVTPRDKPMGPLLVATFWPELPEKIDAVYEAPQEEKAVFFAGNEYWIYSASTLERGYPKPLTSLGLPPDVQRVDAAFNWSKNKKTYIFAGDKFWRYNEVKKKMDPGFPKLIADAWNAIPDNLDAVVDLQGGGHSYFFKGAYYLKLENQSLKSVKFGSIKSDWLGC

[2] = target: recombinant human matrix metalloproteinase-9 (重组人基质金属蛋白酶-9) (Homo sapiens, UniProt P14780); assay: In vitro inhibition of matrix metalloproteinase-9 (fluorogenic peptide cleavage); type: biochemical; conditions: MMP-9; same fluorogenic substrate, 10 μM final; 37 °C; 100 μl
recombinant human matrix metalloproteinase-9 (重组人基质金属蛋白酶-9), sequence (P14780 94-707): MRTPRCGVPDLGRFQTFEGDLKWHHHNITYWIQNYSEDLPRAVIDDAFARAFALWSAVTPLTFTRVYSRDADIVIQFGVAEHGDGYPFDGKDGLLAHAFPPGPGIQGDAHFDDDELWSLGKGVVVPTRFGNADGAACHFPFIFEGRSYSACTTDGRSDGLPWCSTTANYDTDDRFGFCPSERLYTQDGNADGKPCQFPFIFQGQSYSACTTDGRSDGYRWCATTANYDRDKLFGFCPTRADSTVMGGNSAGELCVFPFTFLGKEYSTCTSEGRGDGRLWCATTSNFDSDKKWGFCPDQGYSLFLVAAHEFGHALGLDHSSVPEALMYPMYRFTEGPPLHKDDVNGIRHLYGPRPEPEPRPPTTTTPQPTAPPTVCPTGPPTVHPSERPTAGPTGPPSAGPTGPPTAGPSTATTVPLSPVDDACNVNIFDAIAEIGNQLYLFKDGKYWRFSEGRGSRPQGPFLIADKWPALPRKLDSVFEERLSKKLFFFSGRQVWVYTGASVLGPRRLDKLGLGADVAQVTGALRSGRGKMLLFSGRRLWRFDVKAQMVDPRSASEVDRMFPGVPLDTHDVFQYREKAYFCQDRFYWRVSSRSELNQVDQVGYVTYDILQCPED

[3] = system: human osteoblasts (人成骨细胞); assay: Growth of human osteoblasts cultured in vitro (MTT colorimetric assay); type: cell-based; conditions: 48 h, absorbance 620 nm

## PEPEFHLISAFWPSLPSYLDAA [实施例1, TIMP-mimetic 22-residue peptide made by Fmoc solid-phase synthesis]
[1]
  IC50: 75.1 µM
[2]
  IC50: 25.8 µM
[3]
  EC50: 13.2 µM
